Measurements as given in paper PMC12440737 (2025).

Target: T1, IL-6 receptor (Homo sapiens, UniProt P08887)
T1 chain: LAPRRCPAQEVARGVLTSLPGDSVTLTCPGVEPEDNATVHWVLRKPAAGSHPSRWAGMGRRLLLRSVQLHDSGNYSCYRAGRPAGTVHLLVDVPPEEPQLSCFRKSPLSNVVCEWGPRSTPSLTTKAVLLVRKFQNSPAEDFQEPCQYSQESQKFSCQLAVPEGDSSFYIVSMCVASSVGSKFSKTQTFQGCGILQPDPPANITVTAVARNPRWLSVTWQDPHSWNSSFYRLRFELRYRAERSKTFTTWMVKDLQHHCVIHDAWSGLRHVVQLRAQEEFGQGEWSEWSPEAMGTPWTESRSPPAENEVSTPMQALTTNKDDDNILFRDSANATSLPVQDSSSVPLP
Experiment: SPR

Kd: 9.9 nM
B1: Tocilizumab (antibody, V domains shown)
VH: QVQLQESGPGLVRPSQTLSLTCTVSGYSITSDHAWSWVRQPPGRGLEWIGYISYSGITTYNPSLKSRVTMLRDTSKNQFSLRLSSVTAADTAVYYCARSLARTTAMDYWGQGSLVTVSS
VL: DIQMTQSPSSLSASVGDRVTITCRASQDISSYLNWYQQKPGKAPKLLIYYTSRLHSGVPSRFSGSGSGTDFTFTISSLQPEDIATYYCQQGNTLPYTFGQGTKVEIK
